Test results published in patent publication US20230140293A1.

Experiments:
Experiment in all cases: cell-based or functional assay
[1] = target: CH0505.w4.3 Env, Env-pseudotyped virus produced in 293T cells (HIV-1)
[2] = target: CH0505.w4.3 Env, pseudotyped virus produced in 293S GnTI- cells (HIV-1)
[3] = target: CH0505TF Env, Env-pseudotyped virus produced in 293T cells (HIV-1)
[4] = target: CH0505TF Env, pseudotyped virus produced in 293S GnTI- cells (HIV-1)
[5] = target: CH0505TF.G458Y Env, Env-pseudotyped virus produced in 293T cells (HIV-1)
[6] = target: CH0505TF.gly3.197 Env, Env-pseudotyped virus produced in 293T cells (HIV-1)
[7] = target: CH0505TF.gly3.197 Env, pseudotyped virus produced in 293S GnTI- cells (HIV-1)
[8] = target: CH0505TF.gly3.276 Env, Env-pseudotyped virus produced in 293T cells (HIV-1)
[9] = target: CH0505TF.gly3.276 Env, pseudotyped virus produced in 293S GnTI- cells (HIV-1)
[10] = target: CH0505TF.gly3.461 Env, Env-pseudotyped virus produced in 293T cells (HIV-1)
[11] = target: CH0505TF.gly3.461 Env, pseudotyped virus produced in 293S GnTI- cells (HIV-1)
[12] = target: CH0505TF.gly4 Env, Env-pseudotyped virus produced in 293T cells (HIV-1)
[13] = target: CH0505TF.gly4 Env, pseudotyped virus produced in 293S GnTI- cells (HIV-1)
[14] = target: HIV-1 426c.DM (N460D/N463D) Env on Env-pseudotyped virus produced in 293T cells (HIV-1)
[15] = target: HIV-1 426c.DM (N460D/N463D) Env on Env-pseudotyped virus produced in 293s/GnTI-/- cells (Man5-enrichment) (HIV-1)
[16] = target: HIV-1 426c.SM (N276D) Env on Env-pseudotyped virus produced in 293s/GnTI-/- cells (Man5-enrichment) (HIV-1)
[17] = target: HIV-1 426c.TM (N276D/N460D/N463D) Env on Env-pseudotyped virus produced in 293T cells (HIV-1)
[18] = target: HIV-1 426c.TM (N276D/N460D/N463D) Env on Env-pseudotyped virus produced in 293s/GnTI-/- cells (Man5-enrichment) (HIV-1)
[19] = target: HIV-1 CH0505TF (CH505 transmitted/founder) Env on Env-pseudotyped virus produced in 293T cells (HIV-1)
[20] = target: HIV-1 CH0505TF Env on Env-pseudotyped virus produced in 293S/GnTI-/- cells (Man5-enrichment) (HIV-1)
[21] = target: HIV-1 CH0505TF.gly3.197 Env on Env-pseudotyped virus produced in 293S/GnTI-/- cells (Man5-enrichment) (HIV-1)
[22] = target: HIV-1 CH0505TF.gly3.197 Env on Env-pseudotyped virus produced in 293T cells (HIV-1)
[23] = target: HIV-1 CH0505TF.gly4 Env on Env-pseudotyped virus produced in 293S/GnTI-/- cells (Man5-enrichment) (HIV-1)
[24] = target: HIV-1 CH0505TF.gly4 Env on Env-pseudotyped virus produced in 293T cells (HIV-1)
[25] = target: HIV-1 Env 426c, Env-pseudotyped virus produced in 293S GnTI- cells (Man5-enriched) (HIV-1 clade C strain 426c)
[26] = target: HIV-1 Env 426c, Env-pseudotyped virus produced in 293T cells (HIV-1 clade C strain 426c)
[27] = target: HIV-1 Env 426c.DM (N460D.N463D), Env-pseudotyped virus produced in 293S GnTI- cells (Man5-enriched) (HIV-1 clade C strain 426c)
[28] = target: HIV-1 Env 426c.SM (N276D), Env-pseudotyped virus produced in 293S GnTI- cells (Man5-enriched) (HIV-1 clade C strain 426c)
[29] = target: HIV-1 Env 426c.SM (N276D), Env-pseudotyped virus produced in 293T cells (HIV-1 clade C strain 426c)
[30] = target: HIV-1 Env 426c.TM (N276D.N460D.N463D), Env-pseudotyped virus produced in 293S GnTI- cells (Man5-enriched) (HIV-1 clade C strain 426c)
[31] = target: HIV-1 Env 426c.TM (N276D.N460D.N463D), Env-pseudotyped virus produced in 293T cells (HIV-1 clade C strain 426c)
[32] = target: HIV-1 Env 426c.TM4 (S278R.G471S.N460D.N463D), Env-pseudotyped virus produced in 293S GnTI- cells (Man5-enriched) (HIV-1 clade C strain 426c)
[33] = target: HIV-1 Env 426c.TM4 (S278R.G471S.N460D.N463D), Env-pseudotyped virus produced in 293T cells (HIV-1 clade C strain 426c)
[34] = target: HIV-1 clade C strain 426c Env on Env-pseudotyped virus produced in 293T cells (HIV-1)
[35] = target: HIV-1 clade C strain 426c Env on Env-pseudotyped virus produced in 293s/GnTI-/- cells (Man5-enrichment) (HIV-1)

## CH103 (antibody)
[1]
  IC50 (µg/ml) in TZM-bl: 0.31 µg/mL
[2]
  IC50 (µg/ml) in TZM-bl: 0.18 µg/mL
[3]
  IC50 (µg/ml) in TZM-bl: 1.9 µg/mL
[4]
  IC50 (µg/ml) in TZM-bl: 0.57 µg/mL
[5]
  IC50 (µg/ml) in TZM-bl: 6.4 µg/mL
[6]
  IC50 (µg/ml) in TZM-bl: 1.6 µg/mL
[7]
  IC50 (µg/ml) in TZM-bl: 0.19 µg/mL
[8]
  IC50 (µg/ml) in TZM-bl: 0.014 µg/mL
[9]
  IC50 (µg/ml) in TZM-bl: 0.007 µg/mL
[10]
  IC50 (µg/ml) in TZM-bl: 0.014 µg/mL
[11]
  IC50 (µg/ml) in TZM-bl: 0.009 µg/mL
[12]
  IC50 (µg/ml) in TZM-bl: 0.002 µg/mL
[13]
  IC50 (µg/ml) in TZM-bl: 0.005 µg/mL
[14]
  ID50/IC50 in TZM-bl: 6.1 µg/mL
[15]
  ID50/IC50 in TZM-bl: 0.63 µg/mL
[16]
  ID50/IC50 in TZM-bl: 2.2 µg/mL
[17]
  ID50/IC50 in TZM-bl: 5.2 µg/mL
[18]
  ID50/IC50 in TZM-bl: 0.09 µg/mL
[19]
  IC50 (ug/ml) in TZM-bl cells: 2.6 µg/mL
[20]
  IC50 (ug/ml) in TZM-bl cells: 0.67 µg/mL
[21]
  IC50 (ug/ml) in TZM-bl cells: 0.19 µg/mL
[22]
  IC50 (ug/ml) in TZM-bl cells: 1.6 µg/mL
[23]
  IC50 (ug/ml) in TZM-bl cells: 0.005 µg/mL
[24]
  IC50 (ug/ml) in TZM-bl cells: 0.01 µg/mL
[25]
  IC50 (µg/ml) in TZM-bl: 5.3 µg/mL
[26]
  IC50 (µg/ml) in TZM-bl: > 40 µg/mL
[27]
  IC50 (µg/ml) in TZM-bl: 0.63 µg/mL
[28]
  IC50 (µg/ml) in TZM-bl: 2.2 µg/mL
[29]
  IC50 (µg/ml) in TZM-bl: > 40 µg/mL
[30]
  IC50 (µg/ml) in TZM-bl: 0.09 µg/mL
[31]
  IC50 (µg/ml) in TZM-bl: 5.2 µg/mL
[32]
  IC50 (µg/ml) in TZM-bl: 0.48 µg/mL
[33]
  IC50 (µg/ml) in TZM-bl: 3.7 µg/mL
[34]
  ID50/IC50 in TZM-bl: > 40 µg/mL
[35]
  ID50/IC50 in TZM-bl: 5.3 µg/mL

## CH235 (antibody)
[1]
  IC50 (µg/ml) in TZM-bl: 0.4 µg/mL
[2]
  IC50 (µg/ml) in TZM-bl: 0.03 µg/mL
[3]
  IC50 (µg/ml) in TZM-bl: 0.3 µg/mL
[4]
  IC50 (µg/ml) in TZM-bl: 0.03 µg/mL
[5]
  IC50 (µg/ml) in TZM-bl: 0.1 µg/mL
[6]
  IC50 (µg/ml) in TZM-bl: 0.16 µg/mL
[7]
  IC50 (µg/ml) in TZM-bl: 0.006 µg/mL
[8]
  IC50 (µg/ml) in TZM-bl: 0.034 µg/mL
[9]
  IC50 (µg/ml) in TZM-bl: 0.02 µg/mL
[10]
  IC50 (µg/ml) in TZM-bl: 0.086 µg/mL
[11]
  IC50 (µg/ml) in TZM-bl: 0.011 µg/mL
[12]
  IC50 (µg/ml) in TZM-bl: 0.022 µg/mL
[13]
  IC50 (µg/ml) in TZM-bl: 0.004 µg/mL
[14]
  ID50/IC50 in TZM-bl: > 50 µg/mL
[15]
  ID50/IC50 in TZM-bl: > 25 µg/mL
[16]
  ID50/IC50 in TZM-bl: > 25 µg/mL
[17]
  ID50/IC50 in TZM-bl: > 50 µg/mL
[18]
  ID50/IC50 in TZM-bl: > 25 µg/mL
[19]
  IC50 (ug/ml) in TZM-bl cells: 0.35 µg/mL
  IC50 (µg/ml) in TZM-bl: 0.35 µg/mL
[20]
  IC50 (ug/ml) in TZM-bl cells: 0.03 µg/mL
  IC50 (µg/ml) in TZM-bl: < 0.02 µg/mL
[21]
  IC50 (ug/ml) in TZM-bl cells: 0.006 µg/mL
[22]
  IC50 (ug/ml) in TZM-bl cells: 0.16 µg/mL
[23]
  IC50 (ug/ml) in TZM-bl cells: 0.004 µg/mL
[24]
  IC50 (ug/ml) in TZM-bl cells: 0.022 µg/mL
[25]
  IC50 (µg/ml) in TZM-bl: > 25 µg/mL
[26]
  IC50 (µg/ml) in TZM-bl: > 50 µg/mL
[27]
  IC50 (µg/ml) in TZM-bl: > 25 µg/mL
[28]
  IC50 (µg/ml) in TZM-bl: > 25 µg/mL
[29]
  IC50 (µg/ml) in TZM-bl: > 50 µg/mL
[30]
  IC50 (µg/ml) in TZM-bl: > 25 µg/mL
[31]
  IC50 (µg/ml) in TZM-bl: > 50 µg/mL
[32]
  IC50 (µg/ml) in TZM-bl: > 25 µg/mL
[33]
  IC50 (µg/ml) in TZM-bl: > 25 µg/mL
[34]
  ID50/IC50 in TZM-bl: > 50 µg/mL
[35]
  ID50/IC50 in TZM-bl: > 25 µg/mL
